27 sequences from the supplement of paper PMC9170038 can be followed below.

This data set has as its system MS2 coat protein. Kind of data set: apparent KD of MS2 coat protein; designed switch direction (-1 OFF switch, 1 ON switch): 1; higher = weaker reporter binding. The method in brief:
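RNA switches sharing common flanks were transcribed by stalled E. coli RNA polymerase on Illumina chips. A doubling series of SNAP-549-labelled MS2 coat protein, from 0.7 or 1.5 nM to 3 µM, was applied in Tris-HCl pH 7.5 buffer with KCl, MgCl2, BSA, DTT, tRNA and Tween-20. Each step lasted 0.8–1.5 h at the bottom of the series and 10–20 min at the top. Normalised cluster fluorescence was curve-fitted, giving apparent KD as the per-design median over clusters.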

[1] abbreviates: input ligand: microRNA oligo, concentration not stated.
[2] abbreviates: Eterna round: R95, input ligand: FMN 200 uM.
The mark [3] stands for this setting: Eterna round: R95, input ligand: microRNA oligo, concentration not stated.
[4] abbreviates: Eterna round: R95, input ligand: none.

Turning to “UGAAUAGUGAUAGGAUAUACAUGAGGAAUCCUCGUAGAAGGAUCAUAACAUGAGGAUCACCCAUGUAGCGCUCGAAAGAGCGCA [Mat - Same State NG 1 - JL mod - D55] (Eterna round: R96, puzzle: Same State NG 1)”, the “apparent KD of MS2 coat protein” value is, setting by setting: (input ligand: FMN 200 uM) 244 nM; under setting [1], 207 nM; (input ligand: none) 56.5 nM.
“UGAAUAGUUACAGGAUAUCAUGCGAAAAUUGCGUGAGAAGGGUGGGUGUUGUGCGCUAAGUGCUACAUGAGGAUCACCCAUGUU [SameState NG1 #37] (Eterna round: R96, puzzle: Same State NG 1)”: the “apparent KD of MS2 coat protein” value came to 325 nM (input ligand: FMN 200 uM), 28.8 nM under setting [1] and 213 nM (input ligand: none).
For “UGAAUAGUUACAGGAUAUGAGCCGAAAAUUGGGUCAGAAGGGUGGGUGUUUUGCGCUAUGUGCUACAUGAGGAUCACCCAUGUU [SameState NG1 #34] (Eterna round: R96, puzzle: Same State NG 1)”, in that order: 888 nM, 268 nM and 338 nM.
With “UGAAUGGUGAUAGGAUAUACAUGAGGAAUCCUCGUAGAAGGAUCACGACAUGAGGAUCACCCAUGUAGCCGUCCGUAGACGGCG [salish99_SSNG1_r04_001] (Eterna round: R96, puzzle: Same State NG 1)”, the “apparent KD of MS2 coat protein” value was determined as 302 nM (input ligand: FMN 200 uM), 38.9 nM under setting [1] and 238 nM (input ligand: none).
For “UGAAUGGUGAUAGGAUAUACAUGAGGAAUCCUCGUAGAAGGAUCAUGACAUGAGGAUCACCCAUGUAGCCGUCCGUAGACGGCA [JL SSNG1 1.22] (Eterna round: R96, puzzle: Same State NG 1)”, in that order: 140 nM, 22.1 nM and 351 nM.
Regarding “UGCCUGAGUCGAGGAUAUUAUGGAUCAAUUAAUACAUGAGGAUCACCCAUGUAAUUAAUUUAACAUGAGAAGGUGACUCAGGCU [SSNG2/10-B3] (Eterna round: R96, puzzle: Same State NG 2)”, the “apparent KD of MS2 coat protein” value under setting [1] amounted to 8.4 nM.
For “UGGAUCUAGGCUUGCCUGGGUCCAUGUUGACAUGAGGAUCACCCAUGUGUAUUCUAUAAGCUUUUUGUUUGUCAACU (puzzle: Sensor for hsa-mir-208a)”, the “apparent KD of MS2 coat protein” value under setting [2] was 62.5 nM, the “apparent KD of MS2 coat protein” value under setting [3] was 23.3 nM and the “apparent KD of MS2 coat protein” value under setting [4] came out at 130 nM.
As for “UGGAUCUAGGCUUGCCUGGGUCCAUGUUGACAUGAGGAUCACCCAUGUGUAUUUUUUAAGCUUUUUGUUUGUCAACA [JL A Humble Attempt mod 6] (puzzle: Sensor for hsa-mir-208a)”, the “apparent KD of MS2 coat protein” value by setting is: under setting [2], 42.4 nM; under setting [3], 13.2 nM; under setting [4], 42.5 nM.
In the case of “UGGAUCUAGGCUUGCCUGGGUCCAUGUUGACAUGAGGAUCACCCAUGUGUAUUUUUUUAGCUUUUUGUUUGUCAACA [JL A Humble Attempt mod 5] (puzzle: Sensor for hsa-mir-208a)”, the “apparent KD of MS2 coat protein” value under setting [2] amounted to 39 nM, the “apparent KD of MS2 coat protein” value under setting [3] is 15.1 nM and the “apparent KD of MS2 coat protein” value under setting [4] is 41.1 nM.
As to “UGGAUCUAGGCUUGCCUGGGUCCAUGUUGACAUGAGGAUCACCCAUGUGUAUUUUUUUUGCUUUUUGUUUGUCAACU [JL A Humble Attempt mod 11] (puzzle: Sensor for hsa-mir-208a)”, the “apparent KD of MS2 coat protein” value was 25.2 nM under setting [2], 12.7 nM under setting [3] and 26.5 nM under setting [4].
On to “UGGCUCAGACGAGGAUAUAUGUGAUCACAUGAGGAUCACCCAUGUCUCGAGCUUCGGCUCGAGACAUAGAAGGUGUCUGAGCCA [SSNG2/3-C2] (Eterna round: R96, puzzle: Same State NG 2)”, for which the “apparent KD of MS2 coat protein” value (input ligand: FMN 200 uM) came to 14.8 nM, the “apparent KD of MS2 coat protein” value under setting [1] is 96.2 nM and the “apparent KD of MS2 coat protein” value (input ligand: none) is 49.5 nM.
With “UGGCUCAGACGAGGAUAUGAUCAUGGCGCUUCGGCGCAUACAUGAGGAUCACCCAUGUAAAGUGAUCAGAAGGCGUCUGAGCCU [SSNG2/7-A3] (Eterna round: R96, puzzle: Same State NG 2)”, the “apparent KD of MS2 coat protein” value runs as follows: (input ligand: FMN 200 uM) 14.8 nM; under setting [1], 11.1 nM; (input ligand: none) 15 nM.
As to “UGGCUCAGACGAGGAUAUGAUCAUGGCGCUUCGGCGCAUACAUGAGGAUCACCCAUGUAGGGUGAUCAGAAGGCGUCUGAGCCA [SSNG2/8-A2] (Eterna round: R96, puzzle: Same State NG 2)”, the “apparent KD of MS2 coat protein” value is, setting by setting: (input ligand: FMN 200 uM) 55.8 nM; under setting [1], 413 nM; (input ligand: none) 460 nM.
Regarding “UGGCUCAGAGCAGGAUAUACGUGGUCACAUGAGGAUCACCCAUGUCUCGAGCUUCGGCUCGAGGCGUAGAAGGGCUCUGAGCCU [SSNG2/6-B3] (Eterna round: R96, puzzle: Same State NG 2)”, the “apparent KD of MS2 coat protein” value (input ligand: FMN 200 uM) came out at 118 nM, the “apparent KD of MS2 coat protein” value under setting [1] was found to be 131 nM and the “apparent KD of MS2 coat protein” value (input ligand: none) is 258 nM.
Turning to “UGGUAACAUGAGGAUCACCCAUGUCAAAUGAAUCGAGGAUAUGGGAAUUAACAACACAAACUAGAAGGCGAAUUUG [Altered State 1-8 - Jieux - Same State 1] (Eterna round: R96, puzzle: Same State 1)”, the “apparent KD of MS2 coat protein” value (input ligand: FMN 200 uM) is 316 nM, the “apparent KD of MS2 coat protein” value under setting [1] turned out to be 151 nM and the “apparent KD of MS2 coat protein” value (input ligand: none) is 314 nM.
Consider “UGGUAACAUGAGGAUCACCCAUGUCAAAUGAAUCGAGGAUAUGGGAAUUAACAACACAAACUAGAAGGCGAAUUUG [Altered State 1-8 - Jieux - Same State 1] (puzzle: Same State 1)”, for which the “apparent KD of MS2 coat protein” value reads like this: under setting [2], 293 nM; under setting [3], 488 nM; under setting [4], 180 nM.
For “UGGUAACAUGAGGAUCACCCAUGUCAAAUGAAUCGAGGAUAUGGGAAUUAACAAUAUAAACUAGAAGGCGAAUUUG [Altered State 1-7 - Jieux - Same State 1] (puzzle: Same State 1)”, in that order: 144 nM, 284 nM and 290 nM.
Turning to “UGGUACAUGGGAGGAUAUCAUGUAGAAACAUGAGGAUCACCCAUGUAGAUGGCCGGUAACCGGGAUGAGAAGGCCCAUGUACCU [JL SSNG1 3.64] (Eterna round: R96, puzzle: Same State NG 2)”, the “apparent KD of MS2 coat protein” value worked out at 27 nM (input ligand: FMN 200 uM), 22.4 nM under setting [1] and 30.3 nM (input ligand: none).
As to “UGGUACAUGGGAGGAUAUCCUCAGGAGACAUGAGGAUCACCCAUGUAAUUUAAGCCGAAAGGCAUGGAGAAGGCCCAUGUACCU [JL SSNG1 3.80] (Eterna round: R96, puzzle: Same State NG 2)”, the “apparent KD of MS2 coat protein” value was determined as 19.5 nM (input ligand: FMN 200 uM), 94.1 nM under setting [1] and 129 nM (input ligand: none).
Turning to “UGGUACAUGGGAGGAUAUCUCAUGGAGACAUGAGGAUCACCCAUGUAGAUGGGCGGUAACGCCGGAGAGAAGGCCCAUGUACCU [JL SSNG1 3.70] (Eterna round: R96, puzzle: Same State NG 2)”, the “apparent KD of MS2 coat protein” value stood at 29.2 nM (input ligand: FMN 200 uM), 41.6 nM under setting [1] and 58.1 nM (input ligand: none).
As to “UGGUACAUGGGAGGAUAUGGGCAAGGGACAUGAGGAUCACCCAUGUAUUAAAAGCCGAAAGGCAUCUAGAAGGCCCAUGUACCU [JL SSNG1 3.87] (Eterna round: R96, puzzle: Same State NG 2)”, the “apparent KD of MS2 coat protein” value is 14 nM (input ligand: FMN 200 uM), 42.7 nM under setting [1] and 50.2 nM (input ligand: none).
For “UGGUGUAACAUGAGGAUCACCCAUGUCACAACCCGGAUAGAGUAGGAUAUGGGCUGAUCACGCAUCCAGAAGGGCUCAUACUUU [Eternabot solution 19] (Eterna round: R96, puzzle: Same State NG 3)”, the “apparent KD of MS2 coat protein” value is 19.7 nM (input ligand: FMN 200 uM), 14.3 nM under setting [1] and 16.8 nM (input ligand: none).
As to “UGUAAACAUGAGGAUCACCCAUGUAAUAAUAUGGGAGGAUAUGGGAAUUAAUUAAUUAAACCAGAAGGCCUAAUGU [Mat - Same State 1 - D88] (puzzle: Same State 1)”, the “apparent KD of MS2 coat protein” value reads like this: under setting [2], 30.9 nM; under setting [3], 388 nM; under setting [4], 280 nM.
For “UGUAAACAUGAGGAUCACCCAUGUUUUUUCAUGGGAGGAUAUCUGAGUUAAGUAUAUUAAGGAGAAGGCCUUGUGU [× ×•×ª×• ×ž×“×™× ×” × ×—×ª-03] (puzzle: Same State 1)”, the “apparent KD of MS2 coat protein” value worked out at 90.2 nM under setting [2], 18.7 nM under setting [3] and 24.7 nM under setting [4].
Regarding “UGUACCUUCACAGGAUAUCAUGCGAAAAUUGCGUGAGAAGGGUGAAUACGGUGUUCAUUGUUGCACAUGAGGAUCACCCAUGUA [SameState NG1 #55] (Eterna round: R96, puzzle: Same State NG 1)”, the “apparent KD of MS2 coat protein” value is, setting by setting: (input ligand: FMN 200 uM) 269 nM; under setting [1], 74.9 nM; (input ligand: none) 259 nM.
“UGUAUACAUGAGGAUCACCCAUGUCAACGUAGUCGAGGAUAUGGGCAGCCGUGAGGCGUACCAGAAGGCGAAGAGG [JL-ss1-3.05 ViennaUCT mod] (Eterna round: R96, puzzle: Same State 1)”: the “apparent KD of MS2 coat protein” value (input ligand: FMN 200 uM) turned out to be 36.5 nM, the “apparent KD of MS2 coat protein” value under setting [1] was 104 nM and the “apparent KD of MS2 coat protein” value (input ligand: none) was 151 nM.
On to “UGUAUACAUGAGGAUCACCCAUGUCAACGUAGUCGAGGAUAUGGGCAGCCGUGAGGCGUACCAGAAGGCGAAGAGG [JL-ss1-3.05 ViennaUCT mod] (puzzle: Same State 1)”, for which the “apparent KD of MS2 coat protein” value by setting is: under setting [2], 27.6 nM; under setting [3], 95.3 nM; under setting [4], 172 nM.
